From patent US20070042500A1, “Direct observation of molecular modifications in biological test systems by measuring flourescence lifetime” (Bayer Healthcare AG, priority 2003, published 2007)

Assays:
[1] = Fluorescence lifetime (FLT) of phosphorylated vs non-phosphorylated fluoresceine-peptide conjugate, Ultra FLT prototype (Tecan); assay type: physicochemical; conditions: 10 nM in 50 mM HEPES pH 7.5; mean of 10 measurements of 1 s
Description: It was intended to investigate whether there is a difference between the fluorescence lifetimes (FLTs) of the fluoresceine-peptide conjugates Fl-P1 and Fl-1. For this purpose, in each case 10 nM Fl-P1 and Fl-1 were dissolved in 50 mM HEPES pH 7.5. The fluorescence lifetimes (FLTs) were measured by means of an Ultra FLT prototype (Tecan). In each case, 10 measurements of 1 s each were averaged.

[2] = FLT difference between phosphorylated and non-phosphorylated fluoresceine-kemptide under various pH/NaCl conditions; assay type: physicochemical; conditions: 50 nM; pH 6.0 to 9.5 buffers
Description: 0.1 M NaOH, 50 mM borate buffer pH 9.5, 50 mM HEPES buffer pH 8.0, 50 mM HEPES buffer pH 7.0, 50 mM MES buffer pH 6.0, 200 mM NaCl (low)
The quality of an FLT assay improves with increasing differences of the fluorescence lifetimes of reactant and product. An optimally large FLT difference will not be measured immediately in every case. On the other hand, it should be possible to increase the FLT difference initially obtained, for example by selecting and combining various parameters such as, for example, fluorescent dye, spacer molecule between dye and substrate molecule, or polarity, pH, ionic strength of the solvent or other additive. […] In each case 50 nM Fl-P-kemptide and Fl-kemptide were dissolved in the solutions described under Material, and their FLTs were measured by means of a modified Nanoscan instrument (IOM GmbH, Berlin, Germany) which transferred the signals to a transient recorder. 16 decay curves were averaged for each data point. The descending part of the logarithmic-scale curve was evaluated by means of linear regression and the negative slope was mathematically converted into FLT.

PDE1b phosphodiesterase = PDE1b phosphodiesterase (Homo sapiens, UniProt Q01064); assay: PDE reaction with Fl-cAMP followed directly by fluorescence lifetime; assay type: biochemical; conditions: without inhibitor
Description: Like the phosphatases and kinases discussed above, phosphodiesterases are a very important class of targets, inter alia in the fields of indication of cardiovascular, metabolic disorders, central nervous system, cancer and respiratory diseases. It is therefore of great interest to have a generic assay format which can measure the conversion of cAMP or cGMP to the respective monophosphate. Usually detection enzyme cascades are used. […] In the experiment, first 1 μM Fl-cAMP and a 1:360 dilution of PDE1b were mixed in the presence of different concentrations of the inhibitor BAY 383045. The kinetics of the enzyme reaction was measured by means of an Ultra FLT prototype (Tecan) at room temperature.

[3] = FLT of potential reactant and product of the TAFI enzyme reaction; assay type: physicochemical; conditions: 60 nM; independent of pH (6-9.5) and NaCl concentration (200 mM, 2 M)
From the text: The enzyme thrombin activated with fibrinolysis inhibitor (TAFI) is a carboxypeptidase which plays an important part in thromboses. TAFI cleaves the arginine of the peptide sequence IFTR. This reaction may be detected by either mass spectrometric or chromatographic methods. Both methods are not suitable for high throughput substance testing. Alternatively, more or less complex enzyme cascades or chemical reactions may be used which generate a measurable absorption, fluorescence or luminescence signal. No method has been described to date with which the TAFI reaction can be measured directly and which is suitable at the same time for higher throughput. Therefore, the fluorescence lifetimes of the conjugates FJ23 and FJ24 which both carry a fluorescent dye excitable at 630 nm (Evoblue30, Mobitec) and which differ only in the FJ24 conjugate lacking the C-terminal arginine were measured. FJ23 is a potential reactant of the TAFI reaction, while FJ24 would be the corresponding reaction product. The FJ23 and FJ24 conjugates were dissolved at a concentration of 60 nM in various buffers with pH values of 6, 7, 8 and 9.5, and in the presence of 200 mM and 2 M NaCl.

PDE1b phosphodiesterase, sequence (Q01064 whole entry): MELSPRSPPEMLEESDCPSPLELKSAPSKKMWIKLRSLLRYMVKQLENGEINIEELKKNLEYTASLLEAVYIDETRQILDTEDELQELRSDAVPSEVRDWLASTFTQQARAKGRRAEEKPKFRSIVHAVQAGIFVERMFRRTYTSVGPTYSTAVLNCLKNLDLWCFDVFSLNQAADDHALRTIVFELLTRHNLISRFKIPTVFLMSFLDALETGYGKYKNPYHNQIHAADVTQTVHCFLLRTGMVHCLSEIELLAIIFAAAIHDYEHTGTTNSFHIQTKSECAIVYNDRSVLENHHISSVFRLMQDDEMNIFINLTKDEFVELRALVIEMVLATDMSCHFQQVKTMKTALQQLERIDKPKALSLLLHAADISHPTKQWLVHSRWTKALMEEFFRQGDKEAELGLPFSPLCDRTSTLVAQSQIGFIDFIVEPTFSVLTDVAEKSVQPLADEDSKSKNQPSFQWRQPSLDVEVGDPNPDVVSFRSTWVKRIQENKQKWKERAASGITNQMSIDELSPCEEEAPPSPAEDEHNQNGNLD

Row | Compound | fluorescence lifetime (FLT) [1] | differentiation of phosphorylated and non-phosphorylated form by means of FLT [2] | also measured
1 | fluoresceine-C6-TEGQYpQPQP-COOH [Fl-P1] | 3880 ps | – | –
2 | fluoresceine-C6-LRRApSLGCONH2 [Fl-P-kemptide] | – | improves when the pH increases from 6.0 to 9.5 | –
3 | fluoresceine-C6-TEGQYQPQP-COOH ({fluorescein-C6}-TEGQYQPQP-OH) [Fl-1] | 3600 ps | – | –
4 | fluoresceine-C6-LRRASLGCONH2 [Fl-kemptide] | – | improves when the pH increases from 6.0 to 9.5 | –
5 | Nc1ncnc2c1nc(SCCNC(=S)Nc1ccc(-c3c4ccc(=O)cc-4oc4cc(O)ccc34)c(C(=O)O)c1)n2C1OC2COP(=O)(O)OC2C1O (stereo not shown) [Fl-cAMP, 8-fluo-cAMP] | – | – | fluorescence lifetime at start of PDE1b reaction (PDE1b phosphodiesterase; 1 μM Fl-cAMP, start of reaction): approx. 3500 ps; fluorescence lifetime after PDE1b reaction (conversion to Fl-AMP) (PDE1b phosphodiesterase; within 100 minutes of reaction): approx. 3350 ps
6 | Evoblue30-Ttds(Spacer)-IFTR-COOH [FJ24] | – | – | fluorescence lifetime [3]: 2194±18 ps
